According to patent publication US20250145706A1:

What was measured:
[1] = target: IGHV3-21/IGLV3-21^R110 BCR, membrane-bound on murine TKO cells (human); test: flow cytometry; cell mix A (1:1 IGHV3-21/IGLV3-21^R110 BCR TKO cells and BCR-negative TKO cells), co-stained with anti-IgM-PE
[2] = target: BCRs of a CLL patient, which does not harbor IGLV3-21^R110 (human); test: flow cytometry; PBMCs of a patient with non-IGLV3-21^R110 CLL, co-stained with anti-CD19 (axis label anti-CD19 FITC)
[3] = target: IGHV4-39/IGLV3-21^R110 BCR on CLL B cells (PBMCs) of a patient (human); test: flow cytometry; PBMCs of a CLL patient with IGHV4-39/IGLV3-21^R110 BCR, co-stained with anti-CD19 VioBright515
[4] = target: IGHV3-21/IGLV3-21^G110 BCR, membrane-bound on murine TKO cells (human); test: flow cytometry; cell mix B (1:1 IGHV3-21/IGLV3-21^G110 BCR TKO cells and BCR-negative TKO cells), co-stained with anti-IgM-PE

- % of gated cells (Gate P1) in Q1, anti-IgM-PE positive and mAb01-01-APC negative [1]: 2.78%
- % of gated cells (Gate P1) in Q2, anti-IgM-PE positive and mAb01-01-APC positive [1]: 45.5%
- % of gated cells in Q5, anti-CD19 positive and mAb01-01-APC negative [2]: 98.8%
- % of gated cells in Q6, anti-CD19 positive and mAb01-01-APC positive [2]: 0.28%
- % of gated cells in Q5, anti-CD19 positive and mAb01-01-APC negative [3]: 0.29%
- % of gated cells in Q6, anti-CD19 positive and mAb01-01-APC positive [3]: 98.7%
- % of gated cells (Gate P1) in Q1, anti-IgM-PE positive and mAb01-01-APC negative [4]: 42.2%
- % of gated cells (Gate P1) in Q2, anti-IgM-PE positive and mAb01-01-APC positive [4]: 1.11%
B1: mAb01-01 (antibody, V domains shown)
VH: QVQLQQSGPGLVQPSQSLSITCTVSGFSLTSYGIHWVRQSPGKGLEWLGVIWRGGGTDSNAAFMSRLSITKDNSKSQVFFKMNSLQADDTAIYYCARSRYDEEESMNYWGQGTSVTVSS
VL: QIVLTQSPASLSASVGETVTITCRASGNIHSYLAWYQQKQGKSPQLLVYNAKTLADGVPSRFSGSGSGTQYSLKINSLQPEDFGSYYCQHFWNTPPTFGAGTKLELKR
